Measurements taken from patent US20110086026A1 (ROCHE PALO ALTO, published 2011).
Numbering of substitutions follows the chain as printed.

T1: human IL-13Rα1 (human, UniProt P78552 22-427)
T1 sequence (looked up): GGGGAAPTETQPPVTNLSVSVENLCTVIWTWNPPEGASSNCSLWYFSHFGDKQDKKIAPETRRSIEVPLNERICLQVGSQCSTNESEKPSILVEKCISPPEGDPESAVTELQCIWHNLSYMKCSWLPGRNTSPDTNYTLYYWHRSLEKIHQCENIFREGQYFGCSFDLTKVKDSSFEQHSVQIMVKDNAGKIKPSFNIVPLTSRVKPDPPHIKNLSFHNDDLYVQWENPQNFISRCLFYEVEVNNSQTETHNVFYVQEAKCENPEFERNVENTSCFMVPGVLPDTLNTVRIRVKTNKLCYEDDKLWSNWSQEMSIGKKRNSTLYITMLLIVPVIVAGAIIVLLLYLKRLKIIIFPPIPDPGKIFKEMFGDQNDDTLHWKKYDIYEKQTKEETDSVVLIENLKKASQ

T2: hIL-13Rα1:hFc chimeric protein (R&D Systems, UK) (human, UniProt P78552 22-343)
T2 construct: extracellular domain; Bought; also called chimeric hIL-13Rα1:hFc; not shown: human Fc (hFc) of the bought chimera
T2 sequence (looked up): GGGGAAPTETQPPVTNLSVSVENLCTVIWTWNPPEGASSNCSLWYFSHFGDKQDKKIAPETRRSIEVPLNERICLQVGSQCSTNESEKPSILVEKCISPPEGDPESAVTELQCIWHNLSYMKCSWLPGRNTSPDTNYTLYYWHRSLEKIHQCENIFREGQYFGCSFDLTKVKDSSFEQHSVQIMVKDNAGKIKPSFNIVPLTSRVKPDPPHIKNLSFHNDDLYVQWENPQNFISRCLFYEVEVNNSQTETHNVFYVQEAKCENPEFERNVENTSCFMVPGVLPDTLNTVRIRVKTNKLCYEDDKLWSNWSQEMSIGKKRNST

T3: extracellular domain of hIL-13Rα1 cleaved from hIL-13Rα1:hFc chimeric protein (human, UniProt P78552 22-343)
T3 construct: extracellular domain; also called Cleaved hIL-13Rα1 molecules (MW 40 kDa)
T3 sequence (looked up): T2 sequence (looked up)

B1: HuMab LC5002-005 (antibody, V domains shown)
VH: EVQVLDSGGGLVQPGGSLRLSCTASGFTFRLYTMSWVRQTPGRGLEWVSGISGSGLSTYFADSVKGRFTISRDNSKNTVYLQMNSLRAEDTAVYYCAKEGDWIYFDSWGQGTLVIVSS
VL: DIQMTQSPSSLSASVGDRVTITCRASQGISSWLAWYQQKPEKAPKSLIYAASSLQSGVPSRFSGSGSGTDFTLTISSLQPEDFATYYCQQYNSHPPTFGQGTKLEIK
notes: Only the variable domains are tied to this antibody; also called hu-MAB<h-IL-13Ralpha>LC.5002-005 (DSM ACC2711)
B2: HuMab LC5002-002 (antibody, human IgG1, V domains shown)
VH: EVQLLESGGGLVQPGGSLRLSCAASGFTFNIYAMNWVRQAPGKGLEWVSVISGRGITTYYADSVKGRFTISRDNSKNTLYLQMNSLRADDTAVYYCAKGSSSWTDFDYWGQGTLVTVSS
VL: B1 VL with S31R, L33V, H94Y, P96W, L104V
notes: Human IgG1 kappa from a HuMab mouse hybridoma; Only the variable domains are tied to this antibody; also called hu-MAB<h-IL-13R alpha>LC.5002-002 (DSM ACC2709)
B3: HuMab LC5002-003 (antibody, V domains shown)
VH: B2 VH with G10D, V12I, N84D, D89E, S102Y
VL: B1 VL with H94Y, P96W, L104V
notes: Human IgG1 kappa from a HuMab mouse hybridoma; Only the variable domains are tied to this antibody; also called LC50002-003; hu-MAB<h-IL-13Ralpha>LC.5002-003 (DSM ACC2710)
B4: HuMab LC5002-007 (antibody, human IgG1, V domains shown)
VH: QVQLVQSGAEVKKPGSSVKVSCKVSGGTFSSYAFSWVRQAPGQGLEWMGRIIPILGRTNYAQKFQGRVTITADKSTSTAYMEVSSLRSEDTAVYYCAREGETLDYFYYGMDVWGQGTTVTVSS
VL: EIVLTQSPGTLSLSPGERATLSCRASQSVSSSYLAWYQQKPGQAPRLLIYGASSRAIGIPDRFSGSGSGTDFTLTISRLEPEDFAVYYCQHYGSSLTFGGGTKVEIK
notes: Human IgG1 kappa from a HuMab mouse hybridoma; Only the variable domains are tied to this antibody; also called hu-MAB<h-IL-13R alpha>LC.5002-007 (DSM ACC2712)

Molecular target: T1, human IL-13Rα1
Assay: cell-based or functional assay

IC50, IL-13-induced Stat-6 phosphorylation in BSMC [nM] | IC50, TF-1 proliferation in response to IL-13 [nM] | Binder
1.18 | 0.39 | B1
 | 9.21 | B2
5.98 | 3.07 | B3

Molecular target: T2, hIL-13Rα1:hFc chimeric protein (R&D …)
Assay: SPR Biacore 3000, HuMab captured by anti-hFcγ, hIL-13Rα1:hFc as analyte, 1:1 Langmuir model
Description: For interaction analysis a Biacore 3000 instrument was used. As running and reaction buffer, HBS-P (10 mM HEPES, 150 mM NaCl, 0.005% polysurfactant P, pH 7.4) at 25° C. was used. Capturing molecules (goat anti-human-IgG, Fcγ specifc) were amine-coupled at a concentration of 20 μg/ml at a flow rate of 5 μl/min for 20 minutes. HuMabs were injected at a concentration of 1 μg/ml at a flow rate of 10 μl/min for 1 minute. Blocking of the free goat anti human IgG, Fcγ was achieved by injecting human gamma globulin at 500 nM and 30 μl/min for 3 minutes. Analyte (hIL-13Rα1:hFc chimeric protein) was injected for two minutes at five concentrations between 5.63 nM and 90 nM and washed with HBS-P for five minutes. Regeneration of the surface was accomplished by two injections of 100 mM HCl for 1 min each. The chip, assay format and sequence of injections and kinetic data correspond to the description in table 2. Negative control data (e.g. buffer curves) were subtracted from sample curves for correction of system intrinsic baseline drift and for noise signal reduction. BiaEvaluation version 4.01 was used for analysis of sensorgrams and for calculation of affinity data. Kinetic data were calculated by fitting kinetic data to a 1:1 Langmuir binding model (Table 2).

Kd [nM] | koff [s⁻¹] | kon [M⁻¹ s⁻¹] | Binder
0.018 | 3.12e-06 | 173000 | B1
< 0.0065 | 1.4e-06 | 210000 | B3
< 0.0084 | 1e-06 | 119000 | B4

Molecular target: T3, extracellular domain of hIL-13Rα1 …
Assay: SPR Biacore 3000, C1 chip, HuMab captured by anti-hFcγ, cleaved hIL-13Rα1 as analyte, 1:1 Langmuir model
Description: For interaction analysis, a Biacore 3000 instrument was used. Running and reaction buffer was HBS-P (10 mM HEPES, 150 mM NaCl, 0.005% polysurfactant P, pH 7.4) at 25° C. Capturing antibody molecules (anti-hFcγ) were amine-coupled at a concentration of 100 μg/ml at a flow rate of 5 μl/min for 20 minutes. HuMabs were injected at concentrations of 10 μg/ml at a flow rate of 10 μl/min for 30 seconds. Cleaved hIL-13Rα1 molecules (MW 40 kDa) were injected for 200 seconds at seven concentrations between 1.56 nM and 100 nM and washed with HBS-P for five minutes. Regeneration of the surface was accomplished by two injections of 100 mM HCl for 1 min each at a flow rate of […]. The chip, assay format and sequence of injections and kinetic data correspond to the description in the following Table 3. Kinetic data were calculated by fitting kinetic data to a 1:1 Langmuir binding model.

Kd [nM] | koff [s⁻¹] | kon [M⁻¹ s⁻¹] | Binder
0.22 | 0.0003 | 1.4e+06 | B1
0.62 | 0.00065 | 1.1e+06 | B2
0.39 | 0.00051 | 1.3e+06 | B3
4.4 | 0.00083 | 190000 | B4

Molecular target: T2, hIL-13Rα1:hFc chimeric protein (R&D …)
Assay: competition ELISA: hIL-13Rα1:hFc coated, antibody first, then IL-13 plus IL-4Rα; bound IL-13 detected with biotinylated anti-IL-13
Description: Microtiter plates were coated with 100 μl hIL-13Rα1:hFc chimeric protein (R&D Systems, UK) in PBS at 3 μg/ml at 4° C. overnight on a shaker. After washing the plates with WB, serially diluted HuMab and control antibodies (100 μl/well; dilutions in IB) were added and incubated for 30 min at RT. The plates were again washed, and then a mixture of IL-13 (R&D Systems, UK; 0.5 μg/ml; dilution with IB) and IL-4Rα (R&D Systems, UK; 0.75 μg/ml; dilution with IB) were added and incubated for 1 h at RT. After washing the plates 100 μl biotinylated anti IL-13 antibody (BAF213; R&D Systems, UK) in a concentration of 0.4 μg/ml was added and incubated for 1 h at RT. After washing the plates, bound IL-13 was detected by peroxidase-coupled streptavidin (Roche Diagnostics GmbH, DE) in a dilution of 1:5000 in IB (incubation period 1 h at RT). Finally, plates were washed and developed with ready-to-use ABTS® solution (Roche Diagnostics GmbH, DE) at room temperature (RT) in the dark. Absorbance was measured at 405 nm after 45 to 60 minutes.

IC50 (read off the curve) [nM] | Binder
1 to 2.5 | B2
~2 | B3
~1 | B4
